For assay [1], the target named is endogenous cellular PCNA (cell lysates, permeabilised cells, FFPE tissue) (human) (UniProt P12004). The experiment in a line: image stream of HeLa cells, similarity of the AF488 antibody stain to the 7AAD nuclear stain; 190 of 3950 cells.
In assay [2] the target is NKp44 isoform 1 (NKp44-1) on NK92-44-1 cells (Homo sapiens (Human)) (UniProt O95944). Description: cell-based or functional assay.
Assay [3] addresses NKp44 isoform 3 (NKp44-3) on NK92-44-3 cells (UniProt O95944). Description: cell-based or functional assay.
The target of assay [4] is NKp44 isoform 2 (NKp44-2) on NK92-44-2 cells (UniProt O95944). Description: cell-based or functional assay.

UniProt P12004, sequence (P12004 whole entry, canonical isoform): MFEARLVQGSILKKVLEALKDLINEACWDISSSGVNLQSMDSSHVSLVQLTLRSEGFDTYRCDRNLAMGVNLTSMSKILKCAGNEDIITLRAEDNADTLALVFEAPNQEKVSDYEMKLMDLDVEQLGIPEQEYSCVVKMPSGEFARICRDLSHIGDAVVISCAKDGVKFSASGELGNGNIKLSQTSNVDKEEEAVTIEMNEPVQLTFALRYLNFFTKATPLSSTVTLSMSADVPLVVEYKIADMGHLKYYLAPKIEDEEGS

“commercial anti PCNA mAb clone PC10 (antibody)” registered a %Gated in the gate 'Cytoplasmic PCNA' in assay [1] of 4.81%.
As for “PCNA over-expressed in HeLa target cells (from UniProt P12004 1-261)”, the relative amount of F-actin accumulating at the immune synapse in assay [2] is -22.6%; in assay [3], 4.6%; in assay [4], 6.9%.

For the origin of these results see US20210032320A1.
